Paper PMC11252331
Each block holds one substance with its values, some of them ahead of it.

Columns and labels:
[1] = biological target: untagged ∆N∆PDZ HTRA1 R274Q used for NMR DOSY (human) (UniProt Q92743); assay: NMR DOSY; 100 µM HTRA1 alone, 50 mM potassium phosphate pH 6.7, 10% D2O, 25 °C
[2] = biological target: ΔN HTRA1 A252T (human) (UniProt Q92743); assay: SEC; analytical SEC, Agilent AdvanceBio SEC 300 Å column, 2x PBS, 10 µl of 10 mg/ml protein (273 µM monomer equivalent; A173T 6.5 mg/ml, 178 µM); single proteins or mixtures
[3] = biological target: ΔN HTRA1 A252T (human) (UniProt Q92743); assay: cross-linking; 0.5 µM HTRA1, 50 mM NaPi, 50 mM NaCl pH 8.0, 37 °C, 0.5% glutaraldehyde 2 min; silver staining or Western blot; single proteins or mixtures
[4] = biological target: ΔN HTRA1 A252T (human) (UniProt Q92743); assay: SEC-MALS; Superdex 200 Increase 10/300, 2x PBS, 56 µl of 10 mg/ml protein (273 µM monomer equivalent; A173T 6.5 mg/ml, 178 µM); single proteins or D174R-S328A + R274Q mixed at a 1:1 ratio
[5] = biological target: ΔN HTRA1 D174R-S328A (proteolytically inactive corrector variant) (human) (UniProt Q92743); assay: as above
[6] = biological target: ΔN HTRA1 wild type (human HTRA1 lacking the N-terminal IGFBP7-like fragment) (human) (UniProt Q92743); assay: SEC; analytical SEC, Agilent AdvanceBio SEC 300 Å column, 2x PBS, 10 µl of 10 mg/ml protein (273 µM monomer equivalent; A173T 6.5 mg/ml, 178 µM); single proteins or mixtures
[7] = biological target: ΔN HTRA1 wild type (human HTRA1 lacking the N-terminal IGFBP7-like fragment) (human) (UniProt Q92743); assay: cross-linking; 0.5 µM HTRA1, 50 mM NaPi, 50 mM NaCl pH 8.0, 37 °C, 0.5% glutaraldehyde 2 min; silver staining or Western blot; single proteins or mixtures
[8] = biological target: ΔN HTRA1 wild type (human HTRA1 lacking the N-terminal IGFBP7-like fragment) (human) (UniProt Q92743); assay: native MS; binding experiments, 5 µM protein with VDAC2 peptide added at molar ratios, 200 mM ammonium acetate pH 6.8
[9] = biological target: ΔN HTRA1 wild type (human HTRA1 lacking the N-terminal IGFBP7-like fragment) (human) (UniProt Q92743); assay: SEC-MALS; Superdex 200 Increase 10/300, 2x PBS, 56 µl of 10 mg/ml protein (273 µM monomer equivalent; A173T 6.5 mg/ml, 178 µM); single proteins or D174R-S328A + R274Q mixed at a 1:1 ratio
[10] = biological target: VDAC2 peptide (C-terminus of Voltage Dependent Anion-selective Channel isoform 2); assay: VDAC2 titration of cleavage rate of peptidic fluorescence-quenched substrate, fitted to the hyperbolic weak-binding equation; details: substrate 2 µM; HTRA1 wt 30 nM; R274Q 300 nM

stoichiometry N [1]: 3
Substance: untagged ∆N∆PDZ HTRA1 R274Q used for NMR DOSY (from UniProt Q92743 158-375) (domain or fragment)

stoichiometry N [2]: 3
stoichiometry N [3]: 3
stoichiometry N [4]: 3
Substance: ΔN HTRA1 A252T (from UniProt Q92743 158-480) (domain or fragment)

stoichiometry N [5]: 3
Substance: ΔN HTRA1 D174R-S328A (proteolytically inactive corrector variant) (from UniProt Q92743 158-480) (domain or fragment)

stoichiometry N [6]: 3
stoichiometry N [7]: 3
stoichiometry N [8]: 3
stoichiometry N [9]: 3
Substance: ΔN HTRA1 wild type (human HTRA1 lacking the N-terminal IGFBP7-like fragment) (from UniProt Q92743 158-480) (domain or fragment)

Kd [10]: 12.1 µM
Substance: ΔN HTRA1 wild type (human HTRA1 lacking the N-terminal IGFBP7-like fragment) (from UniProt Q92743) R274Q
